This data set in a line: protein stability index of a GFP-peptide fusion (GPS, HEK-293T) (PSI 1-6); higher = more stable.
[1] abbreviates: treatment: DMSO, c terminus: a fixed tail appended.
[2] abbreviates: treatment: MLN4924 1 uM, 8 h, c terminus: a fixed tail appended.

The source of these data is the supplement of paper PMC10567573.

± gives the standard deviation.
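Further: 24-mer peptide tiles fused after GFP, lentivirally expressed, FACS-sorted into six equal bins by GFP/DsRed ratio, decoded by Illumina sequencing, PSI is the read-weighted mean bin number.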

Sequence VESVFFGGGTPSLASPHTVAAVLE [RSAD1] yielded a protein stability index under setting [1] of 2.97 ± 0.18 and a protein stability index under setting [2] of 3.02 ± 0.47.

For the sequence ERFHGVGILGFNSAEWFITAVGAI [ACSBG2], the protein stability index runs as follows: under setting [1], 2.75 ± 1.1; under setting [2], 2.78 ± 1.3.

Sequence MLCSQPGLANSSRVRGRVGTIRPV [C22orf15] registered a protein stability index under setting [1] of 3.23 ± 0.27 and a protein stability index under setting [2] of 3.37 ± 0.2.

In the case of DEAKKFHLRPELRSQMQGPRTRAR [KLHL12], the protein stability index worked out at 4.8 ± 0.1 under setting [1] and 4.67 ± 0.42 under setting [2].

In the case of RQRSSLAKINIVYQELNYRSVEEA [SCNN1D], the protein stability index is, setting by setting: under setting [1], 3.41 ± 0.24; under setting [2], 3.44 ± 0.22.

YCKNESGSRSNGMWAHSMTVQDYQ [ATE1]: the protein stability index was 2.35 ± 0.45 under setting [1] and 2.7 ± 0.37 under setting [2].

With AAHAAQAHRERNEFPEDPEFEAVV [PI4K2A], the protein stability index under setting [1] was determined as 5.29 ± 0.66 and the protein stability index under setting [2] came out at 5.3 ± 0.28.

Regarding AQMSTLHVSPPPSADPARGLPRSR [PDLIM4], the protein stability index by setting is: under setting [1], 4.79 ± 0.2; under setting [2], 4.86 ± 0.13.

As for DAEMELRAKEEERLNKLRLESEGS [HACD3], the protein stability index is, setting by setting: under setting [1], 5.56 ± 0.28; under setting [2], 5.3 ± 0.24.

On to MERPDKAALNALQPPEFRNESSLA [VMA21], for which the protein stability index reads like this: under setting [1], 4.77 ± 0.26; under setting [2], 4.84 ± 0.088.

Take QVRSAAVQLIWVVSQLYPESIVPI [INTS4]: the protein stability index is, setting by setting: under setting [1], 3.29 ± 0.32; under setting [2], 2.9 ± 0.32.

Regarding NRKVSQRRVDFCKDPSAIGKKQVP [CASP6], the protein stability index was determined as 4.04 ± 0.16 under setting [1] and 4.26 ± 0.22 under setting [2].

As for VLSSEQEFQMFPKSRLSSVSVTYC [ETS2], the protein stability index by setting is: under setting [1], 2.21 ± 0.28; under setting [2], 2.23 ± 0.3.

Turning to PSGCAIACGGLDNKCSVYPLTFDK [GNB5], the protein stability index is, setting by setting: under setting [1], 2.72 ± 0.17; under setting [2], 2.94 ± 0.36.

LPQDPHTKKALEAHCRADELASQD [PPP2R5C]: the protein stability index is 5.04 ± 0.2 under setting [1] and 5.17 ± 0.27 under setting [2].

Regarding EKEDAEKENIEKDEDDVDQELANI [SRPK2], the protein stability index reads like this: under setting [1], 5.62 ± 0.36; under setting [2], 5.61 ± 0.31.

As to KRFDESMQVFAKLGTDPTHVMGLY [VPS39], the protein stability index worked out at 2.38 ± 0.25 under setting [1] and 2.69 ± 0.095 under setting [2].

In the case of SPESESDHEHEEADLELSLPECLE [GNAS], the protein stability index came to 5.4 ± 0.38 under setting [1] and 5.57 ± 0.26 under setting [2].

For IGGAAPSLGALDLLGPATGCLLDD [SERTAD1], the protein stability index reads like this: under setting [1], 4.28 ± 0.19; under setting [2], 4.17 ± 0.2.

Turning to AAAAAAPAPPPPAGGATAWGDLLG [SNAP91], the protein stability index by setting is: under setting [1], 4.37 ± 0.17; under setting [2], 4.42 ± 0.081.

CHGMSSQLVRYSADGLLQLGPLGS [GALNT9] had a protein stability index under setting [1] of 2.32 ± 0.3 and a protein stability index under setting [2] of 2.12 ± 0.21.

ATIENAQPILQIDNARLAADDFRT [KRT16] showed a protein stability index under setting [1] of 4.41 ± 0.17 and a protein stability index under setting [2] of 4.52 ± 0.16.

Take LDLMPRLMTSKPAEVVKILQTMLR [INTS4]: the protein stability index by setting is: under setting [1], 2.23 ± 0.16; under setting [2], 2.13 ± 0.15.

As to KPHFESSTVKTETISFGSVSPGGV [EPB41L3], the protein stability index stood at 4.08 ± 0.23 under setting [1] and 4.09 ± 0.11 under setting [2].

In turn, VQSIELQRPRFITSGGSNIIYVAS [VPS39] registered a protein stability index under setting [1] of 2.35 ± 0.44 and a protein stability index under setting [2] of 2 ± 0.22.

With LESYEDIHGTLHLERLAYLHARLR [PRAME], the protein stability index under setting [1] was found to be 2.41 ± 0.18 and the protein stability index under setting [2] came to 2.61 ± 0.29.

Take LEEQFALEAGGYQAGAARLEEELR [PRPH]: the protein stability index is, setting by setting: under setting [1], 5.35 ± 0.49; under setting [2], 5.62 ± 0.16.

Consider GGLEHVPSSSSIHNGDMEKILLDA [BNIP3L], for which the protein stability index amounted to 4.85 ± 0.23 under setting [1] and 4.68 ± 0.61 under setting [2].

Regarding RGTPPRRHSFRKHLYLLRGLPGSG [N4BP2L1], the protein stability index reads like this: under setting [1], 2.64 ± 0.3; under setting [2], 2.94 ± 0.21.

Regarding PDVIPLPHIYGARIKGVEVFCPLD [FAM189A2], the protein stability index was found to be 2.55 ± 0.25 under setting [1] and 2.64 ± 0.14 under setting [2].

Regarding WTRNPDDITQEEYGEFYKSLTNDW [HSP90AB1], the protein stability index by setting is: under setting [1], 3.81 ± 0.15; under setting [2], 3.82 ± 0.41.

Regarding GQRGAQGAGRRRRAGGPPRPMSEP [SMAD6], the protein stability index reads like this: under setting [1], 4.96 ± 0.21; under setting [2], 5.08 ± 0.42.

In the case of AYVAMIPQCIKEEDTPSDNDSGIC [ATF4], the protein stability index amounted to 4.25 ± 0.41 under setting [1] and 4.46 ± 0.26 under setting [2].

In the case of ELRGAEPGRPARLDQLLDMPAAGL [SPSB4], the protein stability index by setting is: under setting [1], 3.84 ± 0.46; under setting [2], 4.02 ± 0.5.

VAKKTPTKRSTLIISGVSKVPIAQ [C2CD2L]: the protein stability index is 3.02 ± 0.33 under setting [1] and 3.24 ± 0.33 under setting [2].

For TFPASVLAPVPTHSTVSELSRSPV [DUSP5], the protein stability index reads like this: under setting [1], 3.92 ± 0.082; under setting [2], 4.14 ± 0.39.

TQPGIRRARDKALSGGKRKETLV [NET1]: the protein stability index reads like this: (treatment: DMSO, c terminus: native) 4.29 ± 0.3; (treatment: MLN4924 1 uM, 8 h, c terminus: native) 4.15 ± 0.38.

As to YAFVGDYSGQITLLKLEQNTCSVI [WDFY1], the protein stability index stood at 2.94 ± 0.65 under setting [1] and 2.72 ± 0.58 under setting [2].

As for EDHLAVKHFSVEGQLEFRALLFIP [HSP90AB1], the protein stability index under setting [1] is 1.57 ± 0.54.

SSSSSGVLMVGPNFRVGKKIGCGN [CSNK1G1]: the protein stability index was 3.58 ± 0.34 under setting [1] and 3.68 ± 0.11 under setting [2].

For the sequence QGSLSNTYLSKVDPDGKKIKQIQQ [FBXO33], the protein stability index by setting is: under setting [1], 4.28 ± 0.31; under setting [2], 4.34 ± 0.18.

Regarding GVAGGLNRNQGLNRLMLAVRDMMA [TCF25], the protein stability index under setting [1] amounted to 3.12 ± 0.38 and the protein stability index under setting [2] stood at 3.02 ± 0.36.

In the case of ESLKEELLSLKQNHEQEVNTLRCQ [KRT33B], the protein stability index runs as follows: under setting [1], 4.91 ± 0.099; under setting [2], 4.78 ± 0.24.

For the sequence AISDQLLGAGSDLKDFTLNETVNS [ADAMTSL2], the protein stability index under setting [1] turned out to be 4.32 ± 0.21 and the protein stability index under setting [2] worked out at 4.8 ± 0.42.

Consider LLRFGVPSPSTLEPHPRPLLQREL [TNXB], for which the protein stability index runs as follows: under setting [1], 3.08 ± 0.18; under setting [2], 2.93 ± 0.23.

Regarding VMLGAGGVGKSAMTMQFISHRFPE [RIT1], the protein stability index is 2.33 ± 0.34 under setting [1] and 2.12 ± 0.34 under setting [2].

On to SLDWETFEQYCAWQLFLAHNIPLE [INTS3], for which the protein stability index came to 2.3 ± 0.43 under setting [1] and 2.16 ± 0.32 under setting [2].

Consider PGLLGSMALSNHYRSEDLLDVDTA [FBXO3], for which the protein stability index under setting [1] is 4.24 ± 0.097 and the protein stability index under setting [2] turned out to be 4.32 ± 0.24.

For the sequence GVKRKADTTTPTTSAITASRSESP [BRD3], the protein stability index worked out at 5.22 ± 0.15 under setting [1] and 5.19 ± 0.16 under setting [2].

Consider YNIPHGPVVGSTRRLYEKKIFEYE [EMD], for which the protein stability index reads like this: under setting [1], 3.18 ± 0.29; under setting [2], 3.23 ± 0.14.

For the sequence IDSRARRNLGSINTELQDVQRIMV [SEC22B], the protein stability index is 2.8 ± 0.28 under setting [1] and 2.87 ± 0.29 under setting [2].

As for SLSEALDLIESDPDAWCDLSKFDL [MYBL2], the protein stability index came to 3.61 ± 0.23 under setting [1] and 4.13 ± 0.56 under setting [2].

Regarding CSVHYVSDSGDGVYAGRPLSVIQM [FBXO34], the protein stability index is 2.37 ± 0.78 under setting [1] and 2.75 ± 0.68 under setting [2].
